From publication PMC4683529, “Cancer associated missense mutations in BAP1 catalytic domain induce amyloidogenic aggregation: A new insight in enzymatic inactivation” (Scientific Reports, 2015)

Target: the molecule itself
Experiment: ultracentrifugation of heated protein and dot blot of the pellet with A11 and OC antibodies; 7 uM protein heated at 37 °C for 1 h, then 14 h at 25 °C; 1,00,000 x g for 60 min (2 h for OC)

Protein | binding result
BAP1 catalytic domain (1–240), wild type (domain or fragment, human, UniProt Q92560 1-240, looked up, BRCA1 associated protein 1 (BAP1), human, N-terminal catalytic (UCH) domain, residues 1-240, subcloned into pGEX-6P-1 from Flag-HA-BAP1; also called WT 240; BAP1 (1–240); source: E. coli Rosetta 2, purified (standard GST purification protocol)) MNKGWLELESDPGLFTLLVEDFGVKGVQVEEIYDLQSKCQGPVYGFIFLFKWIEERRSRRKVSTLVDDTSVIDDDIVNNMFFAHQLIPNSCATHALLSVLLNCSSVDLGPTLSRMKDFTKGFSPESKGYAIGNAPELAKAHNSHARPEPRHLPEKQNGLSAVRTMEAFHFVSYVPITGRLFELDGLKVYPIDHGPWGEDEEWTDKARRVIMERIGLATAGEPYHDIRFNLMAVVPDRRIK | binds
BAP1 catalytic domain (1–240) F81V (domain or fragment, human, UniProt Q92560 1-240, looked up, BAP1, human, catalytic domain residues 1-240 with the cancer-associated mutation F81V; source: E. coli Rosetta 2, purified (standard GST purification protocol)) MNKGWLELESDPGLFTLLVEDFGVKGVQVEEIYDLQSKCQGPVYGFIFLFKWIEERRSRRKVSTLVDDTSVIDDDIVNNMVFAHQLIPNSCATHALLSVLLNCSSVDLGPTLSRMKDFTKGFSPESKGYAIGNAPELAKAHNSHARPEPRHLPEKQNGLSAVRTMEAFHFVSYVPITGRLFELDGLKVYPIDHGPWGEDEEWTDKARRVIMERIGLATAGEPYHDIRFNLMAVVPDRRIK | binds
